# Source: US20170369590A1 (Genmab, published 2017)
# Positions count from the first letter of the chain named.
# B1: HuMab 060 (antibody, V domains shown)
# VH: EVQLVQSGAEVKKPGESLKISCKGSGYRFTSYWIGWVRQMPGKGLEWMGSIYPGDSYTRNSPSFQGQVTISADKSIATAYLQWNSLKASDTAMYYCARHAGDFYYFDGLDVWGQGTTVTVSS
# VL: not shown
# notes: also called PC1014-060
# B2: HuMab 153 (antibody, V domains shown)
# VH: QVQLVESGGGVVQPGRSLRLSCAASGFTFSDYVIHWVRQAPGKGLEWVTVISYDGSNKYYADSVKGRFTISRDNSKNTLYLQMNSLSAEDTAMYYCARGGITGTTGVFDYWGQGTLVTVSS
# VL: DIQMTQSPSSLSASVGDRVTITCRASQGISSWLAWYQQKPEKAPKSLIYDASSLQSGVPSRFSGSGYGTDFSLTISSLQPEDFAIYYCQQYKSYPITFGQGTRLEIK
# B3: HuMab 098 (antibody, V domains shown)
# VH: EVQLLESGGGLVQPGGSLRLSCAASGFTFSNYGMSWVRQAPGKGLEWVSAISGSAYSTYYADSVKGRFTISRDNSKNTLWLQMNSLRAEDTAVYYCAKAHYHGSGSYYTLFDYWGQGTLVTVSS
# VL: B2 VL with D50A, Y67S, S72T, I85T, K92N, I96Y, R103K
# notes: also called TH1014-098; PC1014-098
# B4: HuMab 111 (antibody, V domains shown)
# VH: QVQLVQSGAEVKKPGSSVKVSCKASGGTFSSYGISWVRQAPGPGLEWMGRIIPILGIANYAQKFQGRVTITADKSTNTAYMELSSLRSEDTAVYYCARDQEYSSNWYYWGQGTLVTVSS
# VL: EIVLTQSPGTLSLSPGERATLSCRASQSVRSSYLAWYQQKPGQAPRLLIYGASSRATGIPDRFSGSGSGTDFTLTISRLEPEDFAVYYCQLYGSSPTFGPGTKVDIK
# B5: HuMab 059 (antibody, V domains shown)
# VH: QVQLVQSGAEVKKPGASVRVPCKASGYTFTRYGISWVRQAPGQGLEWMGWISAYNGKTYYAQKLQGRVTMTTDTSTSTAYMELRSLRSDDTAVYYCARSPLLWFEELYFDYWGQGTLVTVSS
# VL: EIVLTQSPGTLSLSPGERATLSCRASQSVSSTYLAWYQQKPGQAPRLLIYGASSRATGIPDRFSGSGSGTDFTLTISRLEPEDFAVYYCQQYGTSLFTFGPGTKVDIK
# notes: also called PC1014-059
# B6: HuMab 106 (antibody, V domains shown)
# VH: EVQLVQSGAEVKKPGESLKISCKGSGYSFTRYWIGWVRQMPGKGLEWMGIIYPGDSDTRYSPSFQGQVTISADKSISTAYLQWSSLKASDTAMYYCARLTGDRGFDYYSGMDVWGQGTTVTVSS
# VL: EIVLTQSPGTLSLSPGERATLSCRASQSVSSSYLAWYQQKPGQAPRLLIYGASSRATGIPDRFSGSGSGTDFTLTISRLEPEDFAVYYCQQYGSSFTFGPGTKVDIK
# B7: HuMab 132 (antibody, V domains shown)
# VH: QVQLVQSGAEVKKPGASVKVSCKASGYTFTSYGISWVRQAPGQGLEWMGWISAYNGNSNYVQKFQGRVTMTTDTTTSTAYMELRSLTSDDTAVYYCAREYSYDSGTYFYYGMDVWGQGTTVTVSS
# VL: EIVLTQSPATLSLSPGERATLSCRASQSVSSYLAWYQQKPGQAPRLLIYDASNRATGIPARFSGSGSGTDFTLTISSLEPEDFAVYYCQQRSNWPMYTFGQGTKLEIK
# Target: T1, human epidermal growth factor receptor 2 (HER2), membrane-bound on cells (human, UniProt P04626 23-1255)
# Experiment: cell-based or functional assay
Binder,"% cells killed, A431, anti-kappa-ETA'-conjugated","EC50 of cell kill, A431, anti-kappa-ETA'-conjugated"
B1,85%,~0.01 µg/mL
B2,82.4%,~0.0101 µg/mL
B3,87.2%,0.00165 µg/mL

# Target: T1, human epidermal growth factor receptor …
# Experiment: cell-based or functional assay
# Remark: another data set of the same source
Binder,"% cells killed, AU565, anti-kappa-ETA'-conjugated","EC50 of cell kill, AU565, anti-kappa-ETA'-conjugated"
B4,72%,0.0242 µg/mL
B5,67%,0.0677 µg/mL
B1,64.3%,0.0794 µg/mL
B2,60.3%,0.0323 µg/mL
B3,58.7%,0.0121 µg/mL
B6,59.1%,0.108 µg/mL
B7,61.6%,0.0394 µg/mL

# Target: T2, HER2ECDHis (human, UniProt P04626 23-653, biotinylated in the cross-block ELISA (sites not given))
# T2 construct: range 1-653; expressed in HEK-293F; also called soluble HER2; biotinylated HER2ECDHis
# Experiment: ELISA; competitor 025
row,Binder,% binding vs no competitor
1,B2,97%
2,B3,108%

# Target: T2, HER2ECDHis
# Experiment: ELISA; competitor 127
# Protocol: (§1) Next, the ELISA wells were washed with PBST (PBS supplemented with 0.05% Tween-20 [Sigma-Aldrich, Zwijndrecht, The Netherlands]) and blocked for one hour at room temperature (RT) with PBSTC (PBST supplemented 2% [v/v] chicken serum [Gibco, Paisley, Scotland]). The ELISA wells were then washed with PBST and incubated for one hour at RT with HER2ECDHis serially diluted in PBSTC (0.25-2 μg/mL in 2-fold dilutions). […] The plate was thereafter washed with PBST and incubated for one hour with 0.1 μg/mL Streptavidin-poly-HRP (Sanquin, Amsterdam, The Netherlands) diluted in PBST. After washing, the reaction was visualized through a 15 minutes incubation with 2,2′-azino-bis (3-ethylbenzothiazoline-6-sulfonic acid) (ABTS: one ABTS tablet diluted in 50 mL ABTS buffer (Roche Diagnostics, Almere, The Netherlands)) at RT protected from light. The colorization was stopped by adding an equal volume of oxalic acid (Sigma-Aldrich, Zwijndrecht, The Netherlands). Fluorescence at 405 nm was measured on a microtiter plate reader (Biotek Instruments, Winooski, USA).
# (§2) Each HER2 antibody was coated to the ELISA wells at the sub-optimal dose that was determined as described above. After blocking of the ELISA wells, the wells were incubated with the predetermined concentration of 1 μg/mL biotinylated HER2ECDHis in the presence or absence of an excess of a second (competitor) HER2 antibody. The ELISA was then performed as described above. […] Percentage competition was then determined as 100 minus the percentage of inhibition.
row,Binder,% binding vs no competitor
1,B2,27%
2,B3,21%
3,B7,30%

# Target: T2, HER2ECDHis
# Experiment: ELISA; competitor 132
# Protocol: as §1, §2
row,Binder,% binding vs no competitor
1,B2,33%
2,B3,142%
3,B7,32%

# Target: T2, HER2ECDHis
# Experiment: ELISA; competitor 050
# Protocol: as §1, §2
row,Binder,% binding vs no competitor
1,B2,103%
2,B3,100%

# Target: T2, HER2ECDHis
# Experiment: ELISA; competitor 159
# Protocol: as §1, §2
row,Binder,% binding vs no competitor
1,B2,23%
2,B3,9%
3,B7,131%

# Target: T2, HER2ECDHis
# Experiment: ELISA; competitor 084
# Protocol: as §1, §2
row,Binder,% binding vs no competitor
1,B2,107%
2,B3,103%

# Target: T2, HER2ECDHis
# Experiment: ELISA; competitor 060
# Protocol: as §1, §2
row,Binder,% binding vs no competitor
1,B4,36%
2,B5,11%
3,B1,19%
4,B6,23%

# Target: T2, HER2ECDHis
# Experiment: ELISA; competitor 106
# Protocol: as §1, §2
row,Binder,% binding vs no competitor
1,B4,75%
2,B5,23%
3,B1,37%
4,B6,26%

# Target: T2, HER2ECDHis
# Experiment: ELISA; competitor C1
# Protocol: as §1, §2
row,Binder,% binding vs no competitor
1,B4,122%
2,B5,78%
3,B1,108%
4,B2,257%
5,B3,125%
6,B6,471%
7,B7,422%

# Target: T2, HER2ECDHis
# Experiment: ELISA; competitor 005
# Protocol: as §1, §2
row,Binder,% binding vs no competitor
1,B4,51%
2,B5,13%
3,B1,30%
4,B6,25%

# Target: T2, HER2ECDHis
# Experiment: ELISA; competitor 098
# Protocol: as §1, §2
row,Binder,% binding vs no competitor
1,B2,115%
2,B3,17%
3,B7,309%

# Target: T2, HER2ECDHis
# Experiment: ELISA; competitor 169
# Protocol: as §1, §2
row,Binder,% binding vs no competitor
1,B2,111%
2,B3,102%

# Target: T2, HER2ECDHis
# Experiment: ELISA; competitor 091
# Protocol: as §1, §2
row,Binder,% binding vs no competitor
1,B2,102%
2,B3,104%

# Target: T2, HER2ECDHis
# Experiment: ELISA; competitor pert
# Protocol: as §1, §2
row,Binder,% binding vs no competitor
1,B2,121%
2,B3,104%
3,B7,288%

# Target: T2, HER2ECDHis
# Experiment: ELISA; competitor 059
# Protocol: as §1, §2
row,Binder,% binding vs no competitor
1,B4,65%
2,B5,12%
3,B1,14%
4,B6,25%

# Target: T2, HER2ECDHis
# Experiment: ELISA; competitor 111
# Protocol: as §1, §2
row,Binder,% binding vs no competitor
1,B4,14%
2,B5,12%
3,B1,35%
4,B6,21%

# Target: T2, HER2ECDHis
# Experiment: ELISA; competitor 006
# Protocol: as §1, §2
row,Binder,% binding vs no competitor
1,B4,10%
2,B5,11%
3,B1,6%
4,B6,25%

# Target: T2, HER2ECDHis
# Experiment: ELISA; competitor Pert
# Protocol: as §1, §2
row,Binder,% binding vs no competitor
1,B4,102%
2,B5,107%
3,B1,99%
4,B6,275%

# Target: T2, HER2ECDHis
# Experiment: ELISA; competitor F5
# Protocol: as §1, §2
row,Binder,% binding vs no competitor
1,B4,119%
2,B5,128%
3,B1,126%
4,B2,96%
5,B3,96%
6,B6,495%
7,B7,379%

# Target: T2, HER2ECDHis
# Experiment: ELISA; competitor 129
# Protocol: as §1, §2
row,Binder,% binding vs no competitor
1,B2,106%
2,B3,107%

# Target: T2, HER2ECDHis
# Experiment: ELISA; competitor tras
# Protocol: as §1, §2
row,Binder,% binding vs no competitor
1,B2,134%
2,B3,107%
3,B7,353%

# Target: T2, HER2ECDHis
# Experiment: ELISA; competitor 153
# Protocol: as §1, §2
row,Binder,% binding vs no competitor
1,B2,28%
2,B3,110%
3,B7,41%

# Target: T2, HER2ECDHis
# Experiment: ELISA; competitor Tras
# Protocol: as §1, §2
row,Binder,% binding vs no competitor
1,B4,110%
2,B5,117%
3,B1,106%
4,B6,323%

# Target: T1, human epidermal growth factor receptor …
# Experiment: cell-based or functional assay
# Remark: another data set of the same source
Binder,"EC50, fab-CypHer5E internalization, AU565","Maximal MFI, fab-CypHer5E internalization, AU565"
B4,0.0352 µg/mL,81700 MFI
B5,0.0148 µg/mL,77100 MFI
B1,0.0362 µg/mL,68200 MFI
B2,~0.0149 µg/mL,87500 MFI
B3,0.0138 µg/mL,135000 MFI
B6,0.0686 µg/mL,57400 MFI
B7,0.0114 µg/mL,112000 MFI
